Data from patent publication US20230038638A1, “COMPLEMENT FACTOR I-RELATED COMPOSITIONS AND METHODS” (published 2023).
Residue numbers refer to the chain shown, from its start.

Columns and labels:
C3b [1] = target: T1, C3b (human, UniProt P01024)
[2] = target: soluble human C3b (human) (UniProt P01024)
human C4b (human) [3] = target: T2, human C4b (human) (UniProt P0C0L5)
T2 sequence: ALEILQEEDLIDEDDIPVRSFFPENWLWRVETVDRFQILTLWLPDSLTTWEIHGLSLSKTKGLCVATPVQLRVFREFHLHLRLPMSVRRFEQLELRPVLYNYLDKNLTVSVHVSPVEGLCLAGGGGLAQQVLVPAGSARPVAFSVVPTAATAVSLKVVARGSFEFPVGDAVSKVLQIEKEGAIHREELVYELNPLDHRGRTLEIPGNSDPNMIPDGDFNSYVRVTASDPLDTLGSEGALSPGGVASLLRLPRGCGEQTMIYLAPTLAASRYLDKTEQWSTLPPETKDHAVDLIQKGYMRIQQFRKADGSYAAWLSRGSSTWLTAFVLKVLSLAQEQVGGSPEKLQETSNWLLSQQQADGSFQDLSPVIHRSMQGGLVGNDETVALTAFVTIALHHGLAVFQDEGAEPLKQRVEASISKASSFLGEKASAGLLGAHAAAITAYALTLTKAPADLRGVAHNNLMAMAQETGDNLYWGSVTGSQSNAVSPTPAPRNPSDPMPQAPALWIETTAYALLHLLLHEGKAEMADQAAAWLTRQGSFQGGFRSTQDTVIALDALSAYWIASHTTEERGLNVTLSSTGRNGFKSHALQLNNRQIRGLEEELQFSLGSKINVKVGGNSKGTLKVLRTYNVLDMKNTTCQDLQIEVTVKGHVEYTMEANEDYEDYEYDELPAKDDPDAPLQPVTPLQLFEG

C3b [4] = target: T1, C3b; remark: listed apart in the source
human C4b (human) [5] = target: T3, human C4b (human) (UniProt P0C0L4)
T3 sequence: T2 sequence with T151A, G317D, L364P, S365C, I368L, H369D, S420N, A451V, R454L, A530S

[6] = target: soluble human C3b (human) (UniProt P01024); remark: listed apart in the source
human C4b (human) [7] = target: T2, human C4b (human); remark: listed apart in the source
human C4b (human) [8] = target: T3, human C4b (human); remark: listed apart in the source

Substance	C3b cleavage, % Activity (C3b [1])	C4b Screen Ref Fold (fold of CFI-HSA wild type) (human C4b (human) [5])	iC3b Screen Ref Fold (fold of CFI-HSA wild type) [2]	iC3b EC50 [6]	C4c EC50 (human C4b (human) [7])	also measured
CFI-HSA variant 514-MDANNVT (SEQ ID NO: 13)-520 → NG (hTrypsin 200-loop swap) (enzyme)	11%	–	–	–	–	–
CFI-HSA variant D26A (enzyme)	94%	–	–	–	–	iC3b Screen Ref Fold (fold vs CFI-HSA wild type) [2]: 0.34
CFI-HSA variant E38A (enzyme)	79%	–	–	–	–	iC3b Screen Ref Fold (fold vs CFI-HSA wild type) [2]: 0.43; C4b Screen Ref Fold (fold vs CFI-HSA wild type) (human C4b (human) [3]): 0.09
CFI-HSA variant E38A + D425R (enzyme)	–	–	–	–	–	C3b cleavage rate, kmut/kwt (C3b [4]): 1
CFI-HSA variant E457G + E461Q + R462K + F464Y (mouse CFI autolysis loop swap) (enzyme)	–	–	–	–	–	C3b cleavage rate, kmut/kwt (C3b [4]): 2
CFI-HSA variant E457G-E461Q-F464Y (enzyme)	106%	–	–	–	–	–
CFI-HSA variant E457G; E461Q; N422K (enzyme)	–	3.61	2.37	3.5 nM	17.2 nM	–
CFI-HSA variant E457G; E461Q; N422K; T377G (enzyme)	–	4.28	1.74	2.2 nM	5 nM	–
CFI-HSA variant E457G; N422K; T377G (enzyme)	–	4.25	2.99	3.5 nM	7.5 nM	–
CFI-HSA variant E461Q; N422K; T377G (enzyme)	–	3.96	2.75	3.6 nM	7.9 nM	–
CFI-HSA variant F29A (enzyme)	16%	–	–	–	–	iC3b Screen Ref Fold (fold vs CFI-HSA wild type) [2]: 0.05; C4b Screen Ref Fold (fold vs CFI-HSA wild type) (human C4b (human) [3]): 0.17
CFI-HSA variant K14A (enzyme)	93%	–	–	–	–	iC3b Screen Ref Fold (fold vs CFI-HSA wild type) [2]: 0.73; C4b Screen Ref Fold (fold vs CFI-HSA wild type) (human C4b (human) [3]): 0.3; C4c EC50 (nM) (human C4b (human) [8]): 401 nM
CFI-HSA variant M220A + K221Q (enzyme)	92%	–	–	–	–	–
CFI-HSA variant N422K; E461Q (enzyme)	–	2.54	2.67	4.1 nM	51.1 nM	–
CFI-HSA variant N531G; E457G; N422K; T377G (enzyme)	–	4.39	1.28	3.2 nM	4.2 nM	–
CFI-HSA variant N531G; E457G; T377G (enzyme)	–	4.33	1.54	4.5 nM	2.9 nM	–
CFI-HSA variant N531G; E461Q; N422K (enzyme)	–	4.01	1.81	3.7 nM	7.2 nM	–
CFI-HSA variant N531G; E461Q; N422K; T377G (enzyme)	–	4.24	1.7	2.4 nM	5 nM	–
CFI-HSA variant N531G; E461Q; T377G (enzyme)	–	4.1	2.28	4.9 nM	5 nM	–

Substance	C3b cleavage, % Activity (C3b [1])	C4b Screen Ref Fold (fold of CFI-HSA wild type) (human C4b (human) [5])	iC3b Screen Ref Fold (fold of CFI-HSA wild type) [2]	iC3b EC50 [6]	C4c EC50 (human C4b (human) [7])	also measured
CFI-HSA variant N531G; N422K; T377G (enzyme)	–	3.88	2.74	3.3 nM	6.8 nM	–
CFI-HSA variant R35A (enzyme)	47%	–	–	–	–	iC3b Screen Ref Fold (fold vs CFI-HSA wild type) [2]: 0.12; C4b Screen Ref Fold (fold vs CFI-HSA wild type) (human C4b (human) [3]): 0.06
CFI-HSA variant R557A; N531D; Y403F; K504Y (enzyme)	–	3.81	0.11	156 nM	38.6 nM	–
CFI-HSA variant R557A; N531G; Y403F; K504Y; E457G; E461Q (enzyme)	–	4.28	0.36	38.2 nM	22.4 nM	–
CFI-HSA variant R557A; N531M (enzyme)	–	2.91	0.09	288 nM	78.7 nM	–
CFI-HSA variant R557A; N531M; Y403F; K504Y (enzyme)	–	3.28	0.03	334 nM	76.3 nM	–
CFI-HSA variant R557A; N531M; Y403F; K504Y; E457G; E461Q (enzyme)	–	3.97	0.21	79.4 nM	26.3 nM	–
CFI-HSA variant S250A (enzyme)	82%	–	–	–	–	iC3b Screen Ref Fold (fold vs CFI-HSA wild type) [2]: 0.38; C4b Screen Ref Fold (fold vs CFI-HSA wild type) (human C4b (human) [3]): 0.07
CFI-HSA variant S250A + D425R (enzyme)	–	–	–	–	–	C3b cleavage rate, kmut/kwt (C3b [4]): 1
CFI-HSA variant S250L (enzyme)	-4%	–	–	–	–	iC3b Screen Ref Fold (fold vs CFI-HSA wild type) [2]: 0.09
CFI-HSA variant S507A (active site mutant) (enzyme)	0%	–	–	–	–	–
CFI-HSA variant T377G; N422K (enzyme)	–	2.25	2.55	4.1 nM	37.4 nM	–
CFI-HSA variant T377G; N422K; E457G; E461Q; N531G (enzyme)	–	3.92	0.78	3.7 nM	3.5 nM	–
CFI-HSA variant Y20A (enzyme)	7%	–	–	–	–	iC3b Screen Ref Fold (fold vs CFI-HSA wild type) [2]: 0.05; C4b Screen Ref Fold (fold vs CFI-HSA wild type) (human C4b (human) [3]): 0.14
CFI-HSA variant Y20F (enzyme)	80%	–	–	–	–	iC3b Screen Ref Fold (fold vs CFI-HSA wild type) [2]: 0.67; C4b Screen Ref Fold (fold vs CFI-HSA wild type) (human C4b (human) [3]): 0.27
CFI-HSA variant Y20F + D425R (enzyme)	–	–	–	–	–	C3b cleavage rate, kmut/kwt (C3b [4]): 1
CFI-HSA variant Δ(K1-P305) (HSA-SPD) (enzyme)	35%	–	–	–	–	–
CFI-HSA variant ΔC-term (Δ558-PFISQYNV (SEQ ID NO: 14)-565) (enzyme)	7%	–	–	–	–	iC3b Screen Ref Fold (fold vs CFI-HSA wild type) [2]: 0.03; C4b Screen Ref Fold (fold vs CFI-HSA wild type) (human C4b (human) [3]): 0.11
